Drawing on patent publication US20080274134A1, this text covers capacity of the microbeads (µg per ml of microbead suspension) for three substances.

The target of the assay is Protein G on µMACS Protein G microbeads (Group G Streptococci) (UniProt P06654). Nature of the assay: immobilisation on µMACS Protein G microbeads.
UniProt P06654, sequence (P06654 228-352): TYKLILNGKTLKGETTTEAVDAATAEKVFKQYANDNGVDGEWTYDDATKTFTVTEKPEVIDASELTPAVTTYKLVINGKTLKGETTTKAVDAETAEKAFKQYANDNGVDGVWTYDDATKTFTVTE

In the case of human monoclonal antibody 2F5, the capacity of the microbeads (µg per ml of microbead suspension) was found to be 95. The figure for human monoclonal antibody 2G12 is 60; for human monoclonal antibody IgG1b12 it is 55.
